Data reported in the supplement of paper PMC10598134.
± gives the standard deviation.

Assay: collision cross section of modified peptide (TIMS, N2, iRT-aligned); higher = larger / more extended gas-phase ion
Outline: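 Synthetic peptide pools (~100 fmol/µL in 2% acetonitrile/0.1% formic acid, iRT standard spiked 1:40) were separated on a 120-min nanoflow C18 gradient at 60 °C. They were analysed on a timsTOF Pro/HT (dda-PASEF, nitrogen, ~2.4 mbar) and identified with MaxQuant. 1/K0 was calibrated with three reference ions and aligned run-wise to the median iRT peptide deviation. Collision cross section came from the Mason-Schamp equation, averaging 1–3 technical replicates of the most abundant feature per charge state.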

[1] = charge state: 2, modification: Formyl
[2] = charge state: 3, modification: Formyl
[3] = charge state: 2, modification: GlyGly (K)
[4] = charge state: 3, modification: GlyGly (K)
[5] = charge state: 2, modification: Methyl (K)
[6] = charge state: 3, modification: Methyl (K)
[7] = charge state: 2, modification: Trimethyl (K)
[8] = charge state: 3, modification: Trimethyl (K)
[9] = charge state: 2, modification: Citrullination (R)
[10] = charge state: 3, modification: Citrullination (R)
[11] = charge state: 2, modification: Malonyl
[12] = charge state: 2, modification: Nitro (Y)
[13] = charge state: 2, modification: Phospho (Y)
[14] = charge state: 2, modification: Succinyl
[15] = charge state: 2, modification: Propionyl
[16] = charge state: 2, modification: Dimethyl (K)
[17] = charge state: 3, modification: Dimethyl (K)
[18] = charge state: 3, modification: HexNAc (ST)
[19] = charge state: 3, modification: Glutarylation
[20] = charge state: 2, modification: Crotonyl
[21] = charge state: 3, modification: Nitro (Y)
[22] = charge state: 2, modification: Glutarylation
[23] = charge state: 2, modification: Butyryl
[24] = charge state: 2, modification: HexNAc (ST)

GFALVGVGSEASSKK [_GFALVGVGSEASSK(Formyl)K_]
collision cross section [1]: 409.61 ± 2 Å²
collision cross section [2]: 498.32 ± 1.8 Å²

LAEEENKAK [_LAEEENK(GlyGly (K))AK_]
collision cross section [3]: 356.17 ± 0.39 Å²
collision cross section [4]: 428.57 ± 0.75 Å²

PGPQPSAETTR [_P(Hydroxyproline)GPQPSAETTR_]
collision cross section (charge state: 3, modification: Hydroxyproline): 412.85 Å²

VGTASVLQPVKK [_VGTASVLQPVK(Methyl (K))K_]
collision cross section [5]: 392.83 ± 0.43 Å²
collision cross section [6]: 460.66 ± 3.8 Å²

STGLELETPSLVPVKK [_STGLELETPSLVPVK(Methyl (K))K_]
collision cross section [5]: 452.34 ± 2.6 Å²
collision cross section [6]: 516.69 ± 3.1 Å²

LQLEIDQKK [_LQLEIDQK(Trimethyl (K))K_]
collision cross section [7]: 370.49 ± 1.6 Å²
collision cross section [8]: 433.51 ± 3.7 Å²

GRGVGSPEPGPTAPYLGR [_GR(Citrullination (R))GVGSPEPGPTAPYLGR_]
collision cross section [9]: 422.7 ± 0.55 Å²
collision cross section [10]: 509.44 ± 39 Å²

TVSKVDDFLANEAK [_TVSK(Malonyl)VDDFLANEAK_]
collision cross section [11]: 420.45 ± 0.57 Å²

LDLSSLAYSGK [_LDLSSLAY(Nitro (Y))SGK_]
collision cross section [12]: 385.74 ± 0.17 Å²

GAEKTEVAEPR [_GAEK(GlyGly (K))TEVAEPR_]
collision cross section [3]: 384.75 ± 0.88 Å²
collision cross section [4]: 448.79 ± 1.6 Å²

VYIASSSGSTAIKK [_VYIASSSGSTAIK(GlyGly (K))K_]
collision cross section [3]: 437.45 ± 1.4 Å²
collision cross section [4]: 498.73 ± 3.9 Å²

LYLPVQNK [_LY(Phospho (Y))LPVQNK_]
collision cross section [13]: 343.68 ± 6.9 Å²

SKLLFSNTAAQK [_SK(Succinyl)LLFSNTAAQK_]
collision cross section [14]: 398.22 ± 0.77 Å²

VLTANSNPSSPSAAKR [_VLTANSNPSSPSAAK(Propionyl)R_]
collision cross section [15]: 429.75 ± 0.38 Å²
collision cross section (charge state: 3, modification: Propionyl): 528.16 ± 0.65 Å²

LEQVEKELLR [_LEQVEK(Succinyl)ELLR_]
collision cross section [14]: 384.25 ± 0.76 Å²

GRGTGEAEEEYVGPR [_GR(Citrullination (R))GTGEAEEEYVGPR_]
collision cross section [9]: 411.48 ± 0.42 Å²
collision cross section [10]: 487 ± 5.6 Å²

LAEEENKAK [_LAEEENK(Dimethyl (K))AK_]
collision cross section [16]: 348.03 ± 0.59 Å²
collision cross section [17]: 411.22 ± 2.8 Å²

ELANFDPSRPGPPSGR [_ELANFDPS(HexNAc (ST))RPGPPSGR_]
collision cross section [18]: 503.12 ± 0.18 Å²

VLTANSNPSSPSAAKR [_VLTANSNPSSPSAAK(GlyGly (K))R_]
collision cross section [3]: 445.95 ± 0.95 Å²
collision cross section [4]: 511.93 ± 0.35 Å²

AAQASDLEKIHLDEK [_AAQASDLEK(Succinyl)IHLDEK_]
collision cross section [14]: 468.29 ± 1.1 Å²
collision cross section (charge state: 3, modification: Succinyl): 505.3 ± 1.6 Å²

ILDLKTGTVK [_ILDLK(Methyl (K))TGTVK_]
collision cross section [5]: 356.44 ± 1 Å²

TQAYQDQKPGTSGLR [_TQAYQDQK(Malonyl)PGTSGLR_]
collision cross section [11]: 430.62 ± 0.59 Å²
collision cross section (charge state: 3, modification: Malonyl): 484.2 Å²

IVEKYGYTHLSAGELLR [_IVEK(Gluratylation)YGYTHLSAGELLR_]
collision cross section [19]: 567.6 ± 0.21 Å²

GTITVSAQELKDNR [_GTITVSAQELK(Trimethyl (K))DNR_]
collision cross section [7]: 442.48 ± 1 Å²
collision cross section [8]: 479.04 ± 1.8 Å²

DYSAPVNFISAGLKK [_DYSAPVNFISAGLK(Acetyl (K))K_]
collision cross section (charge state: 2, modification: Acetyl (K)): 433.43 ± 2.4 Å²
collision cross section (charge state: 3, modification: Acetyl (K)): 518.95 ± 1.1 Å²

GAEKTEVAEPR [_GAEK(Propionyl)TEVAEPR_]
collision cross section [15]: 373.13 ± 6.5 Å²

SKHLQEQLNELK [_SK(Crotonyl)HLQEQLNELK_]
collision cross section [20]: 421.79 ± 0.28 Å²
collision cross section (charge state: 3, modification: Crotonyl): 491.86 ± 3.7 Å²

DTGEKLTVAENEAETK [_DTGEK(Formyl)LTVAENEAETK_]
collision cross section [1]: 439.79 ± 0.78 Å²

FHYQDQEFLK [_FHY(Nitro (Y))QDQEFLK_]
collision cross section [12]: 402.47 ± 0.18 Å²
collision cross section [21]: 452.15 ± 1.1 Å²

LGTTPSVYGGAGGRGIR [_LGTTPSVYGGAGGR(Methyl (R))GIR_]
collision cross section (charge state: 3, modification: Methyl (R)): 525.94 ± 0.78 Å²

GSRGFPGEK [_GSRGFP(Hydroxyproline)GEK_]
collision cross section (charge state: 2, modification: Hydroxyproline): 330.58 ± 0.79 Å²

DASTLQSQKAEGTGDAK [_DASTLQSQK(GlyGly (K))AEGTGDAK_]
collision cross section [3]: 451.81 ± 1.4 Å²
collision cross section [4]: 505.67 ± 1.1 Å²

AGQKLIDVNHYAK [_AGQK(Methyl (K))LIDVNHYAK_]
collision cross section [5]: 421.24 ± 1.5 Å²
collision cross section [6]: 475.12 ± 2.7 Å²

GEVQVSDKER [_GEVQVSDK(GlyGly (K))ER_]
collision cross section [3]: 370.72 ± 1.1 Å²
collision cross section [4]: 432.88 ± 2.5 Å²

PANEKATDDYHYEK [_PANEK(Dimethyl (K))ATDDYHYEK_]
collision cross section [17]: 491.56 Å²

LTSLNVKYNNDK [_LTSLNVK(GlyGly (K))YNNDK_]
collision cross section [3]: 424.54 ± 1.4 Å²
collision cross section [4]: 491.6 ± 1.1 Å²

TVSKVDDFLANEAK [_TVSK(Formyl)VDDFLANEAK_]
collision cross section [1]: 415.84 ± 0.18 Å²

GARLPGPVSSAR [_GAR(Citrullination (R))LPGPVSSAR_]
collision cross section [9]: 355.27 ± 6 Å²
collision cross section [10]: 446.63 Å²

LLFSNTAAQKLR [_LLFSNTAAQK(Trimethyl (K))LR_]
collision cross section [7]: 428.25 ± 0.6 Å²
collision cross section [8]: 480.65 ± 2.4 Å²

VQGGALEDSQLVAGVAFKK [_VQGGALEDSQLVAGVAFK(Succinyl)K_]
collision cross section [14]: 480.13 ± 1.2 Å²

GYGVIFANGNR [_GY(Phospho (Y))GVIFANGNR_]
collision cross section [13]: 364.42 ± 0.064 Å²

LGNDFHTNKR [_LGNDFHTNK(hydroxyisobutyryl)R_]
collision cross section (charge state: 2, modification: hydroxyisobutyryl): 382.96 ± 0.86 Å²
collision cross section (charge state: 3, modification: hydroxyisobutyryl): 448.25 ± 2.7 Å²

LLEEEDSKLK [_LLEEEDSK(GlyGly (K))LK_]
collision cross section [3]: 386.87 ± 0.88 Å²
collision cross section [4]: 453.7 ± 1.6 Å²

ALASIDSKLNQAK [_ALASIDSK(Malonyl)LNQAK_]
collision cross section [11]: 399.65 ± 0.028 Å²

DLGKFQVATDALK [_DLGK(Gluratylation)FQVATDALK_]
collision cross section [22]: 414.3 ± 0.6 Å²

GEYFGEK [_GEY(Phospho (Y))FGEK_]
collision cross section [13]: 321.93 ± 0.65 Å²

YEEIVKEVSTYIK [_YEEIVK(Methyl (K))EVSTYIK_]
collision cross section [5]: 440.62 ± 1.8 Å²
collision cross section [6]: 492.07 ± 3.2 Å²

PASGAGAGAGAGKR [_PASGAGAGAGAGK(GlyGly (K))R_]
collision cross section [3]: 395.09 ± 1.4 Å²
collision cross section [4]: 472.77 ± 1.1 Å²

DLGKFQVATDALK [_DLGK(Dimethyl (K))FQVATDALK_]
collision cross section [16]: 400.58 ± 0.77 Å²
collision cross section [17]: 478.59 ± 14 Å²

ILDLKTGTVK [_ILDLK(Crotonyl)TGTVK_]
collision cross section [20]: 360.69 ± 0.88 Å²

SLEEEGAAHSGKR [_SLEEEGAAHSGK(Formyl)R_]
collision cross section [1]: 409.43 ± 1.8 Å²
collision cross section [2]: 472.26 ± 2.9 Å²

SFEDIHQYR [_SFEDIHQY(Nitro (Y))R_]
collision cross section [12]: 368.15 ± 0.17 Å²
collision cross section [21]: 453.82 ± 1.2 Å²

LLEEEDSKLK [_LLEEEDSK(Butyryl)LK_]
collision cross section [23]: 385.99 ± 0.85 Å²

ISALQGKLSK [_ISALQGK(Methyl (K))LSK_]
collision cross section [5]: 354.46 ± 1.1 Å²
collision cross section [6]: 434.86 ± 2.4 Å²

VEELEGEITTLNHK [_VEELEGEIT(HexNAc (ST))TLNHK_]
collision cross section [24]: 442.1 ± 10 Å²
collision cross section [18]: 511.94 ± 0.96 Å²

PDTQYTGR [_PDTQY(Phospho (Y))TGR_]
collision cross section [13]: 335.56 ± 0.067 Å²

FYTEDSPGLK [_FY(Nitro (Y))TEDSPGLK_]
collision cross section [12]: 356.24 ± 0.17 Å²

LQAAYAGDKADDIQK [_LQAAYAGDK(Formyl)ADDIQK_]
collision cross section [1]: 428.24 ± 0.79 Å²

SFSASGAQIVSR [_SFSASGAQIVS(HexNAc (ST))R_]
collision cross section [24]: 387.57 ± 0.63 Å²

FGTINIVHPKLGSYTK [_FGTINIVHPK(Gluratylation)LGSYTK_]
collision cross section [22]: 478.34 Å²
collision cross section [19]: 554.9 ± 0.14 Å²

ALLQAKASGK [_ALLQAK(Butyryl)ASGK_]
collision cross section [23]: 352.22 ± 2.3 Å²

SLFFGGKGAPLQR [_SLFFGGK(Gluratylation)GAPLQR_]
collision cross section [22]: 407.53 ± 0.99 Å²
collision cross section [19]: 479.63 ± 1.2 Å²

SPDEAYAIAKK [_SPDEAYAIAK(Butyryl)K_]
collision cross section [23]: 376.59 ± 1.2 Å²
collision cross section (charge state: 3, modification: Butyryl): 446.36 ± 0.47 Å²

LEKTIDDLEEK [_LEK(Biotin)TIDDLEEK_]
collision cross section (charge state: 2, modification: Biotin): 422.95 ± 1.4 Å²

IDLPAENSNSETIIITGKR [_IDLPAENSNSETIIITGK(Methyl (K))R_]
collision cross section [6]: 568.48 ± 0.62 Å²

VGIDTPDIDIHGPEGKLK [_VGIDTPDIDIHGPEGK(Trimethyl (K))LK_]
collision cross section [8]: 543.29 ± 0.9 Å²
